Assay results from publication PMC4243253 (Biochemical Journal, 2014).

Target: the molecule itself
Test: SEC

B1: Bacillus anthracis kynurenine formamidase KynB (enzyme)
chain: MKTSKWIDISQPLNNDIATWPGDTPFSYEVLWSKEESGSVNVGKLTMSIHTGTHIDAPFHFDNDGKKVLDLDIQVYVGPTRIIDVSNLESIGKKELEKFHLEGVERLLLRTSSHGKANEFPDIIPHLRADIAPFLSEKGIRLIGVDVPSVDPLDDKELAAHHQLFKHSIHILENVVLDHVADGDYELIALPLALSDADGSPVRAVIRPI
notes: also called BaKynB; KFase
- stoichiometry N: 2
